Measurements taken from publication PMC3464233, “Structural Basis of Differential Neutralization of DENV-1 Genotypes by an Antibody that Recognizes a Cryptic Epitope” (PLoS Pathogens, 2012).

Experiments:
[1] = biological target: DENV1-E111 monoclonal antibody; experiment: SPR; Biacore T100; about 500 RU of E111 MAb or scFv amine-coupled to a Series S CM5 chip; two-fold dilution series of DIII variants injected 180 s, dissociation 1,000 s; 25°C; double referencing against WNV E16 MAb/scFv flow cell; 1:1 Langmuir fit
[2] = biological target: DENV1-E111 monoclonal antibody; experiment: not stated; half-life of binding of 16007 DIII K343I with E111; unpublished results
[3] = biological target: DENV-1 strain 16007 E protein domain III (residues 293-399) (Dengue virus 1 (strain 16007, genotype 2))
[4] = biological target: DENV-1 strain TVP-2130 E protein domain III (Dengue virus 1 (strain TVP-2130, genotype 1))
[5] = biological target: DENV-1 strain 16007 E protein domain III (residues 293-399) (Dengue virus 1 (strain 16007, genotype 2)); remark: listed apart in the source
[6] = biological target: DENV-1 strain 3146 SL E protein domain III (Dengue virus 1 (strain 3146 SL, genotype 5))
[7] = biological target: DENV-1 strain TVP-5175 E protein domain III (Dengue virus 1 (strain TVP-5175, genotype 3))
[8] = biological target: DENV-1 strain 3146 SL E protein domain III (Dengue virus 1 (strain 3146 SL, genotype 5)); remark: listed apart in the source
[9] = biological target: DENV-1 West Pac-74 DIII V345A (Dengue virus 1 (strain Western Pacific-74, genotype 4))
[10] = biological target: T1, DENV-1 strain Western Pacific-74 E protein domain III (residues 293-399) (Dengue virus 1, strain Nauru/Western …, strain); experiment: cell-based or functional assay
T1 chain: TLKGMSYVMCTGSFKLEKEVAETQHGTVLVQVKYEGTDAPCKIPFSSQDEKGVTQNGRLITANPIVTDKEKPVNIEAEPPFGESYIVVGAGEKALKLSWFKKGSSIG

[11] = biological target: T1, DENV-1 strain Western Pacific-74 E …; experiment: SPR; Biacore T100; about 500 RU of E111 MAb or scFv amine-coupled to a Series S CM5 chip; two-fold dilution series of DIII variants injected 180 s, dissociation 1,000 s; 25°C; double referencing against WNV E16 MAb/scFv flow cell; 1:1 Langmuir fit; conditions: both partners purified
[12] = biological target: T1, DENV-1 strain Western Pacific-74 E …; experiment: as above; conditions: both partners purified
[13] = biological target: E111 single-chain variable fragment (VL at the N-terminus); experiment: SEC; E111 scFv after nickel affinity; two species resolved
[14] = biological target: T2, DENV-1 strain 16007 E protein domain III (residues 293-399) (Dengue virus 1, strain 16007 (genotype …, strain)); experiment: SPR; Biacore T100; about 500 RU of E111 MAb or scFv amine-coupled to a Series S CM5 chip; two-fold dilution series of DIII variants injected 180 s, dissociation 1,000 s; 25°C; double referencing against WNV E16 MAb/scFv flow cell; 1:1 Langmuir fit; conditions: both partners purified
T2 construct: Dengue virus 1 strain 16007 (genotype 2), envelope (E) protein domain III, residues 293-399; untagged; also called 16007 DIII; DIII of 16007; source: BL21 bacterial cells (pET21a, autoinduction); inclusion bodies solubilized and oxidatively re-folded
T2 chain: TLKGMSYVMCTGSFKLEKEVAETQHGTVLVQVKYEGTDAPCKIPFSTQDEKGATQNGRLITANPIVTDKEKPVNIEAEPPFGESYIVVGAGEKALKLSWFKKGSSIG

## DENV-1 16007 DIII V380I (domain or fragment)
[1]
  Kd: 19 nM
  koff: 0.00236 s⁻¹
  kon: 124000 M⁻¹ s⁻¹
  t1/2: 296 s

## DENV-1 16007 DIII A345V (domain or fragment)
[1]
  Kd: 1140 nM
  koff: 0.131 s⁻¹
  kon: 114000 M⁻¹ s⁻¹
  t1/2: 5.3 s

## DENV-1 16007 DIII K343I (domain or fragment)
[2]
  t1/2: 45 min

## DENV-1 16007 DIII A369T (domain or fragment)
[1]
  Kd: 25.3 nM
  koff: 0.00383 s⁻¹
  kon: 151000 M⁻¹ s⁻¹
  t1/2: 182 s

## DENV-1 16007 DIII D341N (domain or fragment)
[1]
  Kd: 18.9 nM
  koff: 0.00402 s⁻¹
  kon: 213000 M⁻¹ s⁻¹
  t1/2: 173 s

## DENV1-E111 monoclonal antibody
[3]
  PRNT50, plaque reduction neutralisation of DENV-1 16007 (genotype 2) on Vero cells: 3.8 ng/mL
[4]
  PRNT50, plaque reduction neutralisation of DENV-1 TVP-2130 (genotype 1) on Vero cells: > 25000 ng/mL
[5]
  EC50 of neutralisation of 16007 RVP after incubation with E111 at 37°C (1 to 22 h) or 40°C (to 4.5 h); fold increase in potency at 40°C for 4.5 h: 3.5 fold

## DENV-1 strain 16007 E protein domain III (residues 293-399) (domain or fragment)
[1]
  Kd: 18 nM
  koff: 0.00356 s⁻¹
  kon: 198000 M⁻¹ s⁻¹
  t1/2: 194 s

## DENV-1 16007 DIII K310E/T329E/K361T (domain or fragment)
[1]
  Kd: 39.8 nM
  koff: 0.00457 s⁻¹
  kon: 121000 M⁻¹ s⁻¹
  t1/2: 155 s

## DENV-1 16007 DIII T339S (domain or fragment)
[1]
  Kd: 16.6 nM
  koff: 0.00313 s⁻¹
  kon: 191000 M⁻¹ s⁻¹
  t1/2: 222 s

## DENV-1 strain TVP-5175 E protein domain III (domain or fragment)
[1]
  Kd: 1980 nM
  koff: 0.312 s⁻¹
  kon: 162000 M⁻¹ s⁻¹
  t1/2: 2.2 s

## DENV-1 strain 3146 SL E protein domain III (domain or fragment)
[1]
  Kd: 523 nM
  koff: 0.142 s⁻¹
  kon: 267000 M⁻¹ s⁻¹
  t1/2: 5.5 s

## DENV-1 16007 DIII L351V (domain or fragment)
[1]
  Kd: 107 nM
  koff: 0.0237 s⁻¹
  kon: 211000 M⁻¹ s⁻¹
  t1/2: 32.9 s

B1: DENV1-E111 monoclonal antibody (antibody, V domains shown)
VH: QVQLLQPGAELVKPGASMKLSCKASGYTFTNWWMHWVRLRPGRGLEWIGRIDPNSDVNKYNEKFENRASLTVDKHSSTAYMQLSSLTSEDSAIYYCARWFFPWYFDVWGTGTTVTVSS
VL: NIVLTQSPASLAVSLGQRATISCRASESVDHYGNSFIYWYQQKPGQPPKLLIYLASNLESGVPARFSGSGSETDFTLTIDSVETDDAATYYCQQNNEDPYTFGGGTKLEIK
notes: also called E111 MAb; E111 IgG; source: E111 hybridoma
[6]
  PRNT50, plaque reduction neutralisation of DENV-1 3146 SL (genotype 5) on Vero cells: 21 ng/mL
[7]
  PRNT50, plaque reduction neutralisation of DENV-1 TVP-5175 (genotype 3) on Vero cells: > 25000 ng/mL
[8]
  EC50, plaque reduction neutralisation of DENV-1 3146 SL (genotype 5): 22 ng/mL
[9]
  neutralisation of V345A West Pac-74 RVP against wild-type West Pac-74 RVP, Raji-DC-SIGNR cells, fold enhancement: 3.6 fold
[10]
  EC50 of neutralisation of West Pac-74 RVP after incubation with E111 at 37°C (1 to 22 h) or 40°C (to 4.5 h); fold reduction at 40°C for 4.5 h: 20 fold
[11]
  Kd: 415 ± 24 nM
[12]
  Kd: 416 nM
  koff: 0.106 s⁻¹
  kon: 256000 M⁻¹ s⁻¹
  t1/2: 6.5 s

B2: E111 single-chain variable fragment (VL at the N-terminus) (scFv, V domains shown)
VH: QVQLLQPGAELVKPGASMKLSCKASGYTFTNWWMHWVRLRPGRGLEWIGRIDPNSDVNKYNEKFENRASLTVDKHSSTAYMQLSSLTSEDSAIYYCARWFFPWYFDVWGTGTTVTVSS
VL: NIVLTQSPASLAVSLGQRATISCRASESVDHYGNSFIYWYQQKPGQPPKLLIYLASNLESGVPARFSGSGSETDFTLTIDSVETDDAATYYCQQNNEDPYTFGGGTKLEIK
notes: E111 VL; as the VL of the light chain of m1; (GGGGS)3 linker; E111 VH; as the VH of the heavy chain of m1; The monomeric species was used for the structure; a second construct with VH first was also made but not used; also called E111 scFv
[13]
  stoichiometry N: 2
[14]
  Kd: 24.6 nM
  koff: 0.00695 s⁻¹
  kon: 288000 M⁻¹ s⁻¹
  t1/2: 100 s
[12]
  Kd: 1830 nM
  koff: 0.275 s⁻¹
  kon: 151000 M⁻¹ s⁻¹
  t1/2: 2.53 s
